Results as given in patent US20150283227A1, “SYNTHETIC ENV PROTEINS” (priority 2012, published 2015).
“And” between values parts separate entries of the source, which are not always exact repeats. Equal values may be shown once. Read-outs that look alike come from different tables or passages of the source. Where a SMILES comes first, the peptide text is derived from it. [ ]: non-standard residue; d: D form. ξ: configuration not given here. Orn(CH(NH2)2) = NC(N)NCCC[C@H](N)C(=O)O; Ile(3ξ) = CCC(C)[C@H](N)C(=O)O; Thr(3ξ) = CC(O)[C@H](N)C(=O)O

Experiments:
697D = assay: SPR binding to conformational V2 mAb 697D; conditions: Example 1
CH58 UCA = assay: SPR binding to unmutated ancestor of CH58; set-up: species or system human; conditions: Example 1
Protocol: (§1) Only the V1/V2 mAb CH58 bound to the glycan-deficient (aglycone) peptide (FIG. 9A). V1/V2 bNAbs ([…], CH01) bound weakly to V1/V2 GlcNAc2 peptide (FIG. 9B). In contrast, both bNAbs PG9 and CH01 bound avidly to the glycopeptides, V1/V2 Man3GlcNAc2 and V1/V2 Man5GlcNAc2 (FIGS. 9C and 9D). CH58 bound weakly to both glycopeptides. Each of the mAbs was captured on a human Fc specific IgG directly immobilized on a BIAcore CM5 sensor chip. Each of the V1/V2 peptides (3 min at 50 uL/min) was injected over the mAb captured surface and SPR binding was monitored on a BIAcore 3000 instrument. Non-specific binding of peptides was subtracted following measurement of signal on a surface with a control ant-RSV mab Synagis.
(§2) V1V2 glycopeptide binding Kd and rate constant measurements were carried out on BIAcore 3000 instruments as described earlier (Alam et al, Immunol. 178(7):4424-4435 (2007), Alam et al, J. Virol. 82(1):115-125 (2008)). Anti-human IgG Fc antibody (Sigma Chemicals) was immobilized on either a CM3 or CM5 (CM3 for kinetics and Kd determination) sensor chip (to minimize non-specific binding of peptides to chip matrix) to about 5000 Resonance Unit (RU) and each antibody was captured to about 100-200 RU on individual flow cells, in addition to one flow cell with the control Synagis mAb on the same sensor chip. Non-specific binding of V1V2 glycopeptide was double-referenced by substracting the control surface and blank buffer flow for each mAb-V1V2 glycopeptide binding interaction. […] SPR curve fitting analysis was performed using global fit of multiple titrations to the 1:1 Langmuir model. All data analysis was performed using the BIAevaluation 4.1 analysis software (GE Healthcare).

CH01 UCA = assay: SPR binding to unmutated ancestor of CH01; set-up: species or system human; conditions: for SPR binding to CH01 UA: Example 1
Protocol: as §1
(§3) The binding Kd (disassociation constant) of the UAs ranges from about 0.15 to 0.2 μM.
as §2

V2 mAb CH59 = assay: SPR binding of V1V2 peptides to captured V2 mAb CH59; set-up: species or system human; conditions: Example 6; peptide oxidized by solubilization in DMSO, 50 ug/mL
Description: FIGS. 42A-42D. Selective binding of V1V2 BnAbs to mannose derivatized V1V2 glycopeptides but not to aglycone or GlcNAc2 V1V2 peptides. SPR curves showing preferential binding of PG9 and CH01 BnAbs to Man5—(FIG. 42A) and Man3—(FIG. 42B) GlcNAc2 V1V2 glycopeptides but not to GlcNAc2 (FIG. 42C) and aglycone (FIG. 42D) peptides. By contrast, V2 mAbs CH58 and CH59 bound to both aglycone ([…]) and GlcNAc2 (FIG. 42D) V1V2 peptides. Each V1V2 peptide was oxidized by solubilization in DMSO and injected over the indicated MAb at 50 ug/mL. Data shown is after reference subtraction of non-specific signal measured over the control mAb (Synagis). Binding data are representative of at least three experiments for Man5 and Man3 V1V2 peptides and two experiments for GlcNAc2 and aglycone V1V2.
V1V2 glycopeptide binding Kd and rate constant measurements were carried out on BIAcore 3000 instruments as described earlier (Alam et al, Immunol. 178(7):4424-4435 (2007), Alam et al, J. Virol. 82(1):115-125 (2008)). Anti-human IgG Fc antibody (Sigma Chemicals) was immobilized on either a CM3 or CM5 (CM3 for kinetics and Kd determination) sensor chip (to minimize non-specific binding of peptides to chip matrix) to about 5000 Resonance Unit (RU) and each antibody was captured to about 100-200 RU on individual flow cells, in addition to one flow cell with the control Synagis mAb on the same sensor chip. […]

V2 mAb CH58 = assay: SPR binding of V1V2 peptides/glycopeptides to captured V2 mAb CH58; set-up: species or system human
PG9 UCA = assay: SPR binding to unmutated ancestor of PG9; set-up: species or system human; conditions: for SPR binding to PG9 UA: Example 1
Protocol: as §1, §3, §2

BnAb CH01 = assay: SPR binding of V1V2 peptides/glycopeptides to captured mAb CH01; set-up: species or system human
[1] = Aqueous solubility in phosphate buffer; assay type: physicochemical
BnAb PG9 = assay type: binding, human
Protocol: V1V2 glycopeptide binding Kd and rate constant measurements were carried out on a BIAcore 3000 instrument using an anti-human Ig Fc capture assay as described earlier (Alam, S. M.; McAdams, M.; Boren, D.; Rak, M.; Scearce, R. M.; Gao, F.; Camacho, Z. T.; Gewirth, D.; Kelsoe, G.; Chen, P.; Haynes, B. F. J. Immunol. 2007, 178, 4424-4435.). Anti-human IgG Fc antibody (Sigma Chemicals) was immobilized on a CM5 sensor chip to about 10000 response units (RU), and each antibody was captured to about 300 RU. Anti-RSV Synagis mAb was captured on the same sensor chip as a control surface. Non-specific binding and drift in signal was double referenced by subtracting binding to the control surface and blank buffer flow for each of the peptide binding interactions. All curve-fitting analyses were performed using global fit of multiple titrations to the 1:1 Langmuir model. All data analysis was performed using the BIAevaluation 4.1 analysis software (GE Healthcare).

PG9 = conditions: NMR studies, Man5GlcNAc2-Asn alone; read-out: Kd for binding of PG9; cited from earlier work
[2] = target: Man5GlcNAc2 V1V2 glycopeptide, DMSO-oxidized disulfide-linked dimer (HIV-1 strain AE.CM244 (A244)); assay: SPR kinetics, DMSO-oxidized dimer; reference CH58 UCA
[3] = target: Man5GlcNAc2 V1V2 glycopeptide, DMSO-oxidized disulfide-linked dimer (HIV-1 strain AE.CM244 (A244)); assay: SPR kinetics, mAb captured on anti-IgG, DMSO-oxidized dimer injected; 1:1 Langmuir
[4] = target: Man3GlcNAc2 V1V2 glycopeptide, DMSO-oxidized disulfide-linked dimer (HIV-1 strain AE.CM244 (A244)); assay: as above
[5] = target: Man5GlcNAc2 V1V2 glycopeptide, DMSO-oxidized disulfide-linked dimer (HIV-1 strain AE.CM244 (A244)); assay: SPR kinetics, DMSO-oxidized dimer; reference CH01
[6] = target: Man5GlcNAc2 V1V2 glycopeptide, DMSO-oxidized disulfide-linked dimer (HIV-1 strain AE.CM244 (A244)); assay: SPR kinetics, mAb captured on anti-IgG, DMSO-oxidized dimer injected; faster component of the dissociation phase
[7] = target: Man3GlcNAc2 V1V2 glycopeptide, DMSO-oxidized disulfide-linked dimer (HIV-1 strain AE.CM244 (A244)); assay: as above
[8] = target: Man5GlcNAc2 V1V2 glycopeptide, DMSO-oxidized disulfide-linked dimer (HIV-1 strain AE.CM244 (A244)); assay: SPR, DMSO-oxidized dimer 1-10 µg/mL over CH58 UCA captured on anti-IgG
[9] = target: Man3GlcNAc2 V1V2 glycopeptide, DMSO-oxidized disulfide-linked dimer (HIV-1 strain AE.CM244 (A244)); assay: as above
[10] = target: Man5GlcNAc2 V1V2 glycopeptide, DMSO-oxidized disulfide-linked dimer (HIV-1 strain AE.CM244 (A244)); assay: SPR kinetics, DMSO-oxidized dimer injected over captured mAb
[11] = target: Man3GlcNAc2 V1V2 (2), not deliberately oxidized (HIV-1 strain AE.CM244 (A244)); assay: SPR, BIAcore 3000, PG9 captured on anti-human Ig Fc, glycopeptide as analyte; 1:1 Langmuir global fit
[12] = target: Man5GlcNAc2 V1V2 (1), not deliberately oxidized (HIV-1 strain AE.CM244 (A244)); assay: as above
[13] = target: Man5GlcNAc2 V1V2 glycopeptide, DMSO-oxidized disulfide-linked dimer (HIV-1 strain AE.CM244 (A244)); assay: SPR kinetics, DMSO-oxidized dimer; reference PG9
[14] = listed as V1V2 aglycone peptide
[15] = Example 6, peptide solubilized/oxidized in DMSO, 50 μg/mL

CCC(C)[C@H](NC(=O)[C@@H]1CCCN1C(=O)[C@@H](NC(=O)[C@@H](NC(=O)[C@H](CC(=O)O)NC(=O)[C@H](CC(C)C)NC(=O)[C@H](CCCCN)NC(=O)[C@H](Cc1ccc(O)cc1)NC(=O)[C@H](Cc1ccccc1)NC(=O)[C@H](CC(C)C)NC(=O)[C@H](C)NC(=O)[C@H](Cc1cnc[nH]1)NC(=O)[C@@H](NC(=O)[C@H](CCCCN)NC(=O)[C@H](CCC(N)=O)NC(=O)[C@H](CCCCN)NC(=O)[C@H](CCCCN)NC(=O)[C@H](CC(=O)O)NC(=O)[C@H](CCCNC(=N)N)NC(=O)[C@H](CC(C)C)NC(=O)[C@H](CCC(=O)O)NC(=O)[C@@H](NC(=O)[C@@H](NC(=O)[C@H](CCSC)NC(=O)[C@H](CC(N)=O)NC(=O)[C@H](Cc1ccccc1)NC(=O)[C@H](CO)NC(=O)[C@H](CS)NC(=O)[C@H](CC(N)=O)NC(=O)[C@H](CCCNC(N)N)NC(=O)[C@@H](NC(=O)[C@H](CCC(=O)O)NC(=O)[C@H](CC(=O)O)NC(=O)[C@@H](NC(=O)[C@@H](NC(C)=O)C(C)CC)C(C)O)C(C)C)C(C)O)C(C)O)C(C)C)C(C)CC)C(C)C)C(N)=O (stereo partly drawn) [Aglycone V1V2] (Ac-[Ile(3ξ)][Thr(3ξ)]DEV[Orn(CH(NH2)2)]NCSFNM[Thr(3ξ)][Thr(3ξ)]ELRDKKQKVHALFYKLD[Ile(3ξ)]VP[Ile(3ξ)]-NH2)
SPR binding to 697D (697D): not to the aglycone peptide
SPR binding to CH58 UA (CH58 UCA): no binding
SPR binding to CH01 UA (CH01 UCA): not to the aglycone peptide
SPR binding to CH01 UA (CH01 UCA; [14]): no binding
SPR binding to CH01 UCA (CH01 UCA; Example 6): neither UCAs bound
SPR binding to CH59 (V2 mAb CH59): bound
SPR binding to CH58 (V2 mAb CH58; Example 1, antigen injected over captured mAb): bound
SPR binding to CH58 (V2 mAb CH58; Example 6, peptide solubilized/oxidized in DMSO, 1-50 μg/mL): retained
SPR binding to PG9 UA (PG9 UCA): not to the aglycone peptide
SPR binding to PG9 UA (PG9 UCA; [14]): no binding
SPR binding to PG9 UCA (PG9 UCA; Example 6): neither UCAs bound
SPR binding to CH01 (BnAb CH01; Example 1, peptide injected over captured mAb): not to the aglycone peptide
SPR binding to CH01 (BnAb CH01; [15]): no binding
aqueous solubility [1]: Poor aqueous solubility
SPR binding to PG9 (BnAb PG9; Example 5, peptides 200 μg/mL, glycans 25 μg/mL over captured PG9): not detected
SPR binding to PG9 (BnAb PG9; Example 5, peptides 200 μg/mL, glycans 25 μg/mL over captured PG9, listed as V1V2 aglycone): minimal to no binding
SPR binding to PG9 (BnAb PG9; [15]): no binding

CC(=O)N[C@@H]1[C@@H](O)[C@H](O[C@@H]2O[C@H](CO)[C@@H](O[C@@H]3O[C@H](CO[C@H]4O[C@H](CO[C@H]5O[C@H](CO)[C@@H](O)[C@H](O)[C@@H]5O)[C@@H](O)[C@H](O[C@H]5O[C@H](CO)[C@@H](O)[C@H](O)[C@@H]5O)[C@@H]4O)[C@@H](O)[C@H](O[C@H]4O[C@H](CO)[C@@H](O)[C@H](O)[C@@H]4O)[C@@H]3O)[C@H](O)[C@H]2NC(C)=O)[C@@H](CO)O[C@H]1NC(=O)C[C@H](N)C(=O)O [Man5GlcNAc2-Asn]
Kd (PG9): 1000 to 2000 µM and 1600 µM

CH01 UCA (antibody)
fold higher affinity than the UCA of CH58 [2]: 5 fold
kon [3]: 8490 M⁻¹ s⁻¹
kon [4]: 2060 M⁻¹ s⁻¹
fold weaker binding than the mature BnAb [5]: 3 fold
Kd [6]: 0.118 µM
koff [6]: 0.000721 s⁻¹
Kd [7]: 1.78 µM
koff [7]: 0.00363 s⁻¹

CH58 UCA (antibody)
Kd [8]: 0.5 µM
Kd [9]: 0.6 µM

PG9 (antibody)
Kd [3]: 0.0294 µM
koff [3]: 0.000271 s⁻¹
kon [3]: 9200 M⁻¹ s⁻¹
Kd [4]: 0.0371 µM
koff [4]: 0.000147 s⁻¹
kon [4]: 3970 M⁻¹ s⁻¹
fold higher affinity than CH01 for the same peptide [10]: 2 fold
Kd [11]: 0.119 µM
Kd [12]: 0.311 µM

PG9 UCA (antibody)
fold weaker binding than the mature BnAb [13]: 3 fold
fold higher affinity than the UCA of CH58 [2]: 5 fold
kon [3]: 7410 M⁻¹ s⁻¹
kon [4]: 5330 M⁻¹ s⁻¹
Kd [6]: 0.0976 µM
koff [6]: 0.000723 s⁻¹
Kd [7]: 1.06 µM
koff [7]: 0.00566 s⁻¹
